Values quoted from earlier work in PMC7020651.
pKd: −log10 of the molar value.

Legend:
[1] = molecular target: Histone H4 (Homo sapiens) (UniProt P62805); test: ITC
[2] = molecular target: Histone H4 1-12 (Homo sapiens) (UniProt P62805)

Substance	pKd [1]	pKd [2]
TAFII250 tandem bromodomains (from UniProt P21675)	4.40	–
P/CAF bromodomain (from UniProt Q92831)	–	3.46
